Reference: CN114106182A (ZHONGSHAN KANGFARE BIOLOGICAL MEDICINE CO LTD, dated 2022)
One block for each binder: values may come before it.

Experiments:
human TIGIT-mFc [1] = target: T1, human TIGIT-mFc (human; mouse, UniProt Q495A1 22-141, limits assumed); assay: indirect ELISA screening of hybridomas on human TIGIT-mFc
T1 construct: Made in house (Akeso, lot 20171110); also called 人TIGIT-mFc; not shown: Fc fragment of mouse IgG (mFc)
T1 sequence (looked up): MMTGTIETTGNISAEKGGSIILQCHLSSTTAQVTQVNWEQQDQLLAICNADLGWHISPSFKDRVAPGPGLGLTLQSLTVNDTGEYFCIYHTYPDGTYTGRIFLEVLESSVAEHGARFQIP

human TIGIT-mFc [2] = target: T1, human TIGIT-mFc; assay: indirect ELISA, TIGIT-mFc captured by goat anti-mouse IgG Fc (Table 1 experiment)
human TIGIT-mFc [3] = target: T1, human TIGIT-mFc; assay: competition ELISA on coated TIGIT-mFc; competitor CD155-hFc-Biotin (Table 3 experiment)
human TIGIT-mFc [4] = target: T1, human TIGIT-mFc; assay: BLI (Fortebio), antibody on AHC sensor, TIGIT-mFc 0.62-50 nM, 1:1 fit, 37 degrees
human TIGIT-mFc [5] = target: T1, human TIGIT-mFc; assay: indirect ELISA, TIGIT-mFc captured by goat anti-mouse IgG Fc (Table 2 experiment)
[6] = target: T2, TIGIT antigen on the surface of 293T-TIGIT cells (human, UniProt Q495A1 22-244); assay: flow cytometry on 293T-TIGIT cells, FITC goat anti-human IgG
T2 construct: whole, on cells; also called Jurkat-TIGIT (TIGITFL)
T2 sequence (looked up): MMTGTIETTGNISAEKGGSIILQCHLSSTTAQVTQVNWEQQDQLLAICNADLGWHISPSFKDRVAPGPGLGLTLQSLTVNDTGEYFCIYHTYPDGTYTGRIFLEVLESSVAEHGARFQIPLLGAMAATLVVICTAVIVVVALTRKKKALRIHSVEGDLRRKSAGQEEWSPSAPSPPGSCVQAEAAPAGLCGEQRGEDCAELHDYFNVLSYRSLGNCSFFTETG

human TIGIT-mFc [7] = target: T1, human TIGIT-mFc; assay: competition ELISA on coated TIGIT-mFc; competitor CD155-hFc-Biotin (Table 4 experiment)
[8] = target: T2, TIGIT antigen on the surface of …; assay: FACS competition on 293T-TIGIT cells; competitor CD112-mG1Fc (30 nM)
[9] = target: T2, TIGIT antigen on the surface of …; assay: FACS competition on 293T-TIGIT cells; competitor CD155-mG1Fc (10 nM)

binding result (human TIGIT-mFc [1]): binds
B1: 26B12 (antibody, V domains shown)
VH: EVQLQESGPGLVKPSQSLSLTCTVTGHSFTSDYAWNWIRQFPGNRLEWMGYISYSDSTNYNPSLKSRISITRDTSKNQFFLQMNSVTTEDTATYYCARLDYGNYGGAMDYWGQGTSVTVSS
VL: DIVLTQSHEFMSTSLRDRVSITCKSSQHVSTAVAWYQQKPGQSPKLLIYSASYRYTGVPDRFTGSGSGTDFTFTISSVKAEDLAVYYCQQHYITPWTFGGGTKLEIK
notes: Mouse monoclonal antibody from hybridoma; also called monoclonal antibody secreted by hybridoma LT019 (CCTCC NO: C2020208)

EC50 (human TIGIT-mFc [2]): 0.017 nM
EC50 (human TIGIT-mFc [3]): 0.513 nM
B2: BMS 22G2 (antibody, human IgG1, kappa, V domains shown)
VH: QVQLQESGPGLVKPSETLSLTCTVSGGSVSSGIYYWSWIRQPPGKGLEWIGYIYYSGSTNYNPSLKSRVTISVDTSKNQFSLKLSSVTAADTAVYYCARDYYVSGNYYNVDYYFFGVDVWGQGTTVTVSS
VL: EIVLTQSPATLSLSPGERATLSCRASQSVSSYLAWYQQKPGQAPRLLIYDASNRATGIPARFSGSGSGTDFTLTISSLEPEDFAVYYCQQRSNWPPLFTFGPGTKVDIKR
notes: Positive control anti-TIGIT antibody

Kd (human TIGIT-mFc [4]): 0.628 nM
B3: BMS 22G2(G1DM) (antibody, V domains shown)
VH: QVQLQESGPGLVKPSETLSLTCTVSGGSVSSGIYYWSWIRQPPGKGLEWIGYIYYSGSTNYNPSLKSRVTISVDTSKNQFSLKLSSVTAADTAVYYCARDYYVSGNYYNVDYYFFGVDVWGQGTTVTVSS
VL: EIVLTQSPATLSLSPGERATLSCRASQSVSSYLAWYQQKPGQAPRLLIYDASNRATGIPARFSGSGSGTDFTLTISSLEPEDFAVYYCQQRSNWPPLFTFGPGTKVDIK

EC50 (human TIGIT-mFc [5]): 0.017 nM
EC50 [6]: 1.15 nM
EC50 (human TIGIT-mFc [7]): 0.425 nM
EC50 [8]: 1.29 nM
EC50 [9]: 1.22 nM
Kd (human TIGIT-mFc [4]): 0.847 nM
B4: RG6058(G1DM) (antibody, human IgG1, kappa, L234A L235A, V domains shown)
VH: EVQLQQSGPGLVKPSQTLSLTCAISGDSVSSNSAAWNWIRQSPSRGLEWLGKTYYRFKWYSDYAVSVKGRITINPDTSKNQFSLQLNSVTPEDTAVFYCTRESTTYDLLAGPFDYWGQGTLVTVSS
VL: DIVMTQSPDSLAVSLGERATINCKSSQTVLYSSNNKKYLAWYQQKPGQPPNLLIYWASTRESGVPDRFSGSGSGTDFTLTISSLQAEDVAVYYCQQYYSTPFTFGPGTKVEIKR
notes: Positive control anti-TIGIT antibody (Tiragolumab variable regions, G1DM constant region)
